Assay results from patent publication US20230144203A1 (SHANGHAI SENHUI MEDICINE CO., LTD., priority 2020, published 2023).

T1: human CD79B (Homo sapiens, UniProt P40259)
T1 construct: the extracellular region (ECD) of which comprises 159 amino acids (Met1-Asp159); human Fc domain (hFc) OR His tag; made in house; host or cells: 293F cells
T1 sequence (P40259 29-159 limits assumed): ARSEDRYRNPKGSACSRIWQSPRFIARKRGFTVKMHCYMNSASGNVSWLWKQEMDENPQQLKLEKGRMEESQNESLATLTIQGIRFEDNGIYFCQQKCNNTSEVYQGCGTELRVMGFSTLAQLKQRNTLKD

T2: human CD79B (Homo sapiens, UniProt P40259)
T2 construct: endogenous in cells; host or cells: DOHH2
T2 sequence (P40259 29-229): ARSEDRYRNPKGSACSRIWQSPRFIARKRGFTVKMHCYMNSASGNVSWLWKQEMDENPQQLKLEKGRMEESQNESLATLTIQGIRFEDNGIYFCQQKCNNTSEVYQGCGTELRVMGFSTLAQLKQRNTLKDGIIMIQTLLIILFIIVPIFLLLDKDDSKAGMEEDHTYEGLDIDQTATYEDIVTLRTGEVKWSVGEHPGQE
T2 sequence (P11912 33-226 partner): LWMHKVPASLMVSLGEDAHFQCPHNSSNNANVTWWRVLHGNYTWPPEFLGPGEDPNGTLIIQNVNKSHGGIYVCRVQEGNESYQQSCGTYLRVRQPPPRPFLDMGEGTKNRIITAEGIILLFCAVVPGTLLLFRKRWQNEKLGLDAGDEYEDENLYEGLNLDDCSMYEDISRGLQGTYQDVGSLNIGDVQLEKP

T3: huTROP-2 on CHO-K1 cells over-expressing huTROP-2 protein (human, UniProt P09758 27-323)
T3 construct: No signal peptide cleavage is stated for this form; also called CHO-K1/hTROP-2
T3 sequence: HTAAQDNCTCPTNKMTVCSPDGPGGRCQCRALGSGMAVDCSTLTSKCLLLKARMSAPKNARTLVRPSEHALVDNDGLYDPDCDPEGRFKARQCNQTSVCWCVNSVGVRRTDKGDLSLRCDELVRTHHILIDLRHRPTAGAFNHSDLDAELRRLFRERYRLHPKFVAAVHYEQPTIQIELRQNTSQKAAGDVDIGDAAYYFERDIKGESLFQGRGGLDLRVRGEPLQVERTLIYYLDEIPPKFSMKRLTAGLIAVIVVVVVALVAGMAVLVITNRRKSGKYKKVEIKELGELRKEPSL

T4: huTROP-2 protein (His27-Thr274 Accession #NP_002344.2) (human, UniProt P09758 27-274)
T4 sequence: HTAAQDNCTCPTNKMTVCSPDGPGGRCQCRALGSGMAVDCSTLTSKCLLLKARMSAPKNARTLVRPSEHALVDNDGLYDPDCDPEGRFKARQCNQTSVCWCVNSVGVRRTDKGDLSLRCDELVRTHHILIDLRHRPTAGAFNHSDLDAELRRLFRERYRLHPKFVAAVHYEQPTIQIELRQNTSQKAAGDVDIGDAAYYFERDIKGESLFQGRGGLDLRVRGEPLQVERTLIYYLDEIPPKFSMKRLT


Key:
[1] = test system: human diffuse large B-cell lymphoma WSU-DLCL2; assay: Test Example 3 nude mouse subcutaneous xenograft tumor efficacy
Protocol: Human diffuse large B-cell lymphoma WSU-DLCL2 cells were purchased from DSMZ. WSU-DLCL2 cells were cultured in a 10-cm petri dish with RPMI 1640 medium (Gibco) containing 10% fetal bovine serum, penicillin and streptomycin (GIBCO, Cat #15070-063) and incubated in an incubator at 37° C. with 5% CO2. Subculturing was carried out 2-3 times a week and cells were collected, counted and inoculated when the cells grew in long-term exponentially.
Female BALB/c-nu nude mice with a growth period of 28-35 days was purchased from Beijing Huafukang Biotechnology Co., Ltd. Production license No.: SCXK (Beijing) 2019-0008, animal certification No.: 1103221911012510. Housing environment: SPF grade.
Each nude mouse was subcutaneously inoculated with 2.0×10^7 WSU-DLCL2 cells, and after the tumor volume grew to −100 mm^3, the animals were grouped according to tumor volume (D0). The mice was administrated by intravenous injection (IV), and the administration volume was 10 mL/kg; specific dosages and schedules are shown in Table 3. The tumor volumes and body weights were measured twice a week and the results were recorded.
The experimental index is to study the influence of the drug on the tumor growth, and the specific index is T/C % or tumor growth inhibition TGI (%). Tumor diameters were measured twice weekly with a vernier caliper and tumor volume (V) was calculated according to the following formula:
where a and b represent length and width, respectively. T/C (%)=(T−T0)/(C−C0)×100, where T and C were tumor volumes at the end of the experiment; T0 and C0 were tumor volumes at the beginning of the experiment.
If the volume of tumor shrank compared with its initial volume, i.e., T<T0 or C<C0, it was defined as partial regression(PR) of tumor; if the tumor completely disappeared, it was defined as complete regression (CR) of tumor.
Unless otherwise indicated, comparison between tumor volumes of the two groups was made by two-tailed student's t-test, with P<0.05 defined as statistically significant difference.

human CD79B [2] = molecular target: T1, human CD79B; assay: ELISA assay on purified anti-human CD79B mouse monoclonal antibodies; assay type: binding
Protocol: (§1) 2) ELISA assay on anti-human CD79B mouse monoclonal antibodies: the 96-well plates were correspondingly labeled before experiment, and coated with 1 μg/mL antigen at 50 μL per well in a refrigerator at 4° C. overnight. The next day, the coated antigen plates from the previous day were removed and washed once with a plate washer (cleaning solution: 1×PBST). After washing, the plates were blocked with 1% BSA blocking solution prepared in 1×PBST at 37° C. for 1 h. After being washed with 1×PBST cleaning solution for 3 times, the plates were added with 50 μL of diluted antibody at 1:10 at 100 nM, and incubated in a 37° C. incubator for 1 h. After the plates were washed with 1×PBST cleaning solution for 3 times, added with 100 μL of goat anti-mouse secondary antibody diluted at 1:5000, and incubated in an incubator at 37° C. for 0.5 h. The plates were washed, the TMB color developing solution A solution and B solution in a ratio of 1:1 was taken for to color development. The color development reaction was terminated with 1 N hydrochloric acid for 15 min. Fluorescence value was read at 450 nm on a Spectra Max M5 multi-functional plate reader.

human CD79B [3] = molecular target: T1, human CD79B; assay: ELISA of culture supernatant of anti-human CD79B hybridoma positive clones; assay type: binding; details: 1 μg/mL coated antigen
Protocol: as §1, with “3)” for “2)”, “screening:” for “assay on anti-human CD79B mouse monoclonal antibodies:”, “cell supernatant to be detected,” for “of diluted antibody at 1:10 at 100 nM,”
5) Hybridoma positive clone identification: after fusion and subclone screening of mouse splenocytes, multiple specific antibodies against human CD79B antigen were obtained, and the antibodies from the 17 strains of hybridomas having the highest binding to ELISA and FACS were produced and purified. […]

human CD79B [4] = molecular target: T2, human CD79B; assay: FACS of culture supernatant of anti-human CD79B hybridoma positive clones on DOHH2 cells; assay type: binding
Protocol: (§2) 4) FACS screening: after centrifugation, the cell suspension of DOHH2 was resuspended in PBS containing 0.1% BSA, counted, added with the test cell supernatant and incubated at room temperature for 60 min. The cells were washed three times, then added with Anti-Mouse IgG (Fc specific)-FITC secondary antibody, and incubated at room temperature for 30 min in the dark. The cells were washed three times, gently resuspended in PBS containing 0.1% BSA, and then assayed using the machine.
5) Hybridoma positive clone identification: after fusion and subclone screening of mouse splenocytes, multiple specific antibodies against human CD79B antigen were obtained, and the antibodies from the 17 strains of hybridomas having the highest binding to ELISA and FACS were produced and purified. Meanwhile, specific antibodies against monkey CD79B antigen were obtained, and the 4 strains of hybridomas having the highest binding to ELISA and FACS were taken for production and purification of antibodies. mIgG was used as negative control in the both assays.

human CD79B [5] = molecular target: T2, human CD79B; assay: FACS assay on purified anti-human CD79B mouse monoclonal antibodies (DOHH2 cells); assay type: binding
Protocol: as §2, with “3)” for “4)”, “assay on anti-human CD79B mouse monoclonal antibodies:” for “screening:”, “100 μL of antibody diluted 1:10 at 100 nM” for “the test cell supernatant”, “1 h.” for “60 min.”

[6] = molecular target: T3, huTROP-2 on CHO-K1 cells …; assay: activity verification on CHO-K1 cells over-expressing huTROP-2 (method not detailed)
[7] = molecular target: T4, huTROP-2 protein (His27-Thr274 …); assay: activity verification with huTROP-2 protein His27-Thr274 (method not detailed)

Molecule	ELISA binding capacity (human CD79B [2])	Results (OD450) (human CD79B [3])	Mean fluorescence value (human CD79B [4])	FACS binding capacity (human CD79B [5])	further results
polatuzumab [Polivy]	–	–	–	–	Tolerability in tumor-bearing mice ([1]; 1 mg/kg IV at D0, no significant weight loss): could well tolerate; Mean tumor volume (mean ± SEM) ([1]; D0, 1 mg/kg IV at D0): 108.07 ± 1.31 mm^3; Mean tumor volume (mean ± SEM) ([1]; D17, 1 mg/kg IV at D0): 550.88 ± 52.37 mm^3; T/C % ([1]; D17, 1 mg/kg IV at D0): 63%; Tumor inhibition rate (%) ([1]; D17, 1 mg/kg IV at D0): 37%
mAb015: anti-human CD79B mouse monoclonal antibody, VH SEQ ID NO: 3, VL SEQ ID NO: 4 (antibody, V domains shown) VH: QVQLQQSGAELARPGASVKLSCKASGSSFTSYGINWVKQRTGQGLEWIGEIFPRSGNTYYNEKFEGKATLTADKSSSTAYMELRSLTSEDSAVYFCAKGDLGDFDYWGQGTTLTVSS VL: DFLMTQTPLSLPVRLGDQASISCRSSQSIVHSDGNTYFEWYLQKPGQSPKLLIYKVSNRFSGVPDRFSGSGSGTDFTLKISRVEAEDLGVYYCFQGSHVPWTFGGGTKLEIK	highest ELISA binding capacity	3.41	10036	highest FACS binding capacity	–
mAb017: anti-human CD79B mouse monoclonal antibody, VH SEQ ID NO: 5, VL SEQ ID NO: 6 (antibody, V domains shown) VH: QVQLQQSGAELARPGASVKLSCKASGYTFTTYGINWVKQRTGQGLEWIGEIYPRSGNIYYNEKFKGKATLTADKSSSTAYMELRSLTSEDSAVYFCARGSDYDGDFAYWGQGTLVTVSA VL: DVLMTQTPLSLPVSLGDQASISCRSSQSIVHHDGNTYLEWYLQKPGQSPKLLIYKVSNRFSGVPDRFSGSGSGTDFTLKISRVEAEDLGVYYCFQGSHVPWTFGGGTQLEIK	highest ELISA binding capacity	3.80	8132	highest FACS binding capacity	–
anti-TROP-2 antibody PD3 (antibody, human IgG1, kappa, V domains shown, also called anti-human TROP-2 monoclonal antibody) VH: EVQLVQSGSELKKPGASVKVSCKASGYTFTNYGMNWVKQAPGQGLKWMGWINTYTGEPTYTQDFKGRFAFSLDTSVSTAYLQISSLKAEDTAVYYCARGGFGSSYWYFDVWGQGTLVTVSS VL: DIQLTQSPSSLSASVGDRVSITCKASQDVSIAVAWYQQKPGKAPKLLIYSASYRYTGVPDRFSGSGSGTDFTLTISSLQPEDFAVYYCQQHYITPLTFGAGTKVEIKR	–	–	–	–	binding result [6]: binds; binding result [7]: binds
